target: T1, FcγRIa (human, UniProt P12314 16-292); assay: SPR; vs GpH7-A5/GpH7-B3/GpL16-k0=100
T1 construct: extracellular domain; also called FcgRI; CD64
T1 sequence (P12314 16-292): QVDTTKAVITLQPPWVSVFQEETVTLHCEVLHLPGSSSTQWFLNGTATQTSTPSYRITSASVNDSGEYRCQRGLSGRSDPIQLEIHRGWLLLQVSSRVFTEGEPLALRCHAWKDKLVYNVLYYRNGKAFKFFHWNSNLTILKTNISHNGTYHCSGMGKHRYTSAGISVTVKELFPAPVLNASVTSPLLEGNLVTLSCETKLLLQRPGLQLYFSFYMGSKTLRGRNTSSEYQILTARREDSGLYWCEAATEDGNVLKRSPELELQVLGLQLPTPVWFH

Binder	He/Con_1a
GpH7-A5/GpH7-B3 variant A330_09D/GpL16-k0 (antibody, human IgG1, kappa, heterodimerized; also called He Ab A330_09D) heavy 1: not shown heavy 2: not shown light: DIVMTQSPLSLPVTPGEPASISCQASESLVHSNRNTYLHWYLQKPGQSPQLLIYKVSNRFSGVPDRFSGSGSGTDFTLKISRVEAEDVGVYYCSQNTHVPPTFGQGTKVEIERTVAAPSVFIFPPSDEQLKSGTASVVCLLNNFYPREAKVQWKVDNALQSGNSQESVTEQDSKDSTYSLSSTLTLSKADYEKHKVYACEVTHQGLSSPVTKSFNRGEC	109 % of control
GpH7-A5/GpH7-B3 variant E333_01G/GpL16-k0 (antibody, human IgG1, kappa, heterodimerized; also called He Ab E333_01G) heavy 1: not shown heavy 2: not shown light: DIVMTQSPLSLPVTPGEPASISCQASESLVHSNRNTYLHWYLQKPGQSPQLLIYKVSNRFSGVPDRFSGSGSGTDFTLKISRVEAEDVGVYYCSQNTHVPPTFGQGTKVEIERTVAAPSVFIFPPSDEQLKSGTASVVCLLNNFYPREAKVQWKVDNALQSGNSQESVTEQDSKDSTYSLSSTLTLSKADYEKHKVYACEVTHQGLSSPVTKSFNRGEC	103 % of control
GpH7-A5/GpH7-B3 variant E269_13S/GpL16-k0 (antibody, human IgG1, kappa, heterodimerized; also called He Ab E269_13S) heavy 1: not shown heavy 2: not shown light: DIVMTQSPLSLPVTPGEPASISCQASESLVHSNRNTYLHWYLQKPGQSPQLLIYKVSNRFSGVPDRFSGSGSGTDFTLKISRVEAEDVGVYYCSQNTHVPPTFGQGTKVEIERTVAAPSVFIFPPSDEQLKSGTASVVCLLNNFYPREAKVQWKVDNALQSGNSQESVTEQDSKDSTYSLSSTLTLSKADYEKHKVYACEVTHQGLSSPVTKSFNRGEC	103 % of control
GpH7-A5/GpH7-B3 variant E269_02A/GpL16-k0 (antibody, human IgG1, kappa, heterodimerized; also called He Ab E269_02A) heavy 1: not shown heavy 2: not shown light: DIVMTQSPLSLPVTPGEPASISCQASESLVHSNRNTYLHWYLQKPGQSPQLLIYKVSNRFSGVPDRFSGSGSGTDFTLKISRVEAEDVGVYYCSQNTHVPPTFGQGTKVEIERTVAAPSVFIFPPSDEQLKSGTASVVCLLNNFYPREAKVQWKVDNALQSGNSQESVTEQDSKDSTYSLSSTLTLSKADYEKHKVYACEVTHQGLSSPVTKSFNRGEC	104 % of control
GpH7-A5/GpH7-B3 variant A330_11K/GpL16-k0 (antibody, human IgG1, kappa, heterodimerized; also called He Ab A330_11K) heavy 1: not shown heavy 2: not shown light: DIVMTQSPLSLPVTPGEPASISCQASESLVHSNRNTYLHWYLQKPGQSPQLLIYKVSNRFSGVPDRFSGSGSGTDFTLKISRVEAEDVGVYYCSQNTHVPPTFGQGTKVEIERTVAAPSVFIFPPSDEQLKSGTASVVCLLNNFYPREAKVQWKVDNALQSGNSQESVTEQDSKDSTYSLSSTLTLSKADYEKHKVYACEVTHQGLSSPVTKSFNRGEC	103 % of control
GpH7-A5/GpH7-B3 variant E269_03V/GpL16-k0 (antibody, human IgG1, kappa, heterodimerized; also called He Ab E269_03V) heavy 1: not shown heavy 2: not shown light: DIVMTQSPLSLPVTPGEPASISCQASESLVHSNRNTYLHWYLQKPGQSPQLLIYKVSNRFSGVPDRFSGSGSGTDFTLKISRVEAEDVGVYYCSQNTHVPPTFGQGTKVEIERTVAAPSVFIFPPSDEQLKSGTASVVCLLNNFYPREAKVQWKVDNALQSGNSQESVTEQDSKDSTYSLSSTLTLSKADYEKHKVYACEVTHQGLSSPVTKSFNRGEC	103 % of control
GpH7-A5/GpH7-B3 variant E269_01G/GpL16-k0 (antibody, human IgG1, kappa, heterodimerized; also called He Ab E269_01G) heavy 1: not shown heavy 2: not shown light: DIVMTQSPLSLPVTPGEPASISCQASESLVHSNRNTYLHWYLQKPGQSPQLLIYKVSNRFSGVPDRFSGSGSGTDFTLKISRVEAEDVGVYYCSQNTHVPPTFGQGTKVEIERTVAAPSVFIFPPSDEQLKSGTASVVCLLNNFYPREAKVQWKVDNALQSGNSQESVTEQDSKDSTYSLSSTLTLSKADYEKHKVYACEVTHQGLSSPVTKSFNRGEC	104 % of control
GpH7-A5/GpH7-B3 variant A330_16H/GpL16-k0 (antibody, human IgG1, kappa, heterodimerized; also called He Ab A330_16H) heavy 1: not shown heavy 2: not shown light: DIVMTQSPLSLPVTPGEPASISCQASESLVHSNRNTYLHWYLQKPGQSPQLLIYKVSNRFSGVPDRFSGSGSGTDFTLKISRVEAEDVGVYYCSQNTHVPPTFGQGTKVEIERTVAAPSVFIFPPSDEQLKSGTASVVCLLNNFYPREAKVQWKVDNALQSGNSQESVTEQDSKDSTYSLSSTLTLSKADYEKHKVYACEVTHQGLSSPVTKSFNRGEC	106 % of control
GpH7-A5/GpH7-B3 variant E269_05P/GpL16-k0 (antibody, human IgG1, kappa, heterodimerized; also called He Ab E269_05P) heavy 1: not shown heavy 2: not shown light: DIVMTQSPLSLPVTPGEPASISCQASESLVHSNRNTYLHWYLQKPGQSPQLLIYKVSNRFSGVPDRFSGSGSGTDFTLKISRVEAEDVGVYYCSQNTHVPPTFGQGTKVEIERTVAAPSVFIFPPSDEQLKSGTASVVCLLNNFYPREAKVQWKVDNALQSGNSQESVTEQDSKDSTYSLSSTLTLSKADYEKHKVYACEVTHQGLSSPVTKSFNRGEC	102 % of control
GpH7-A5/GpH7-B3 variant E269_16H/GpL16-k0 (antibody, human IgG1, kappa, heterodimerized; also called He Ab E269_16H) heavy 1: not shown heavy 2: not shown light: DIVMTQSPLSLPVTPGEPASISCQASESLVHSNRNTYLHWYLQKPGQSPQLLIYKVSNRFSGVPDRFSGSGSGTDFTLKISRVEAEDVGVYYCSQNTHVPPTFGQGTKVEIERTVAAPSVFIFPPSDEQLKSGTASVVCLLNNFYPREAKVQWKVDNALQSGNSQESVTEQDSKDSTYSLSSTLTLSKADYEKHKVYACEVTHQGLSSPVTKSFNRGEC	106 % of control
GpH7-A5/GpH7-B3 variant E269_09D/GpL16-k0 (antibody, human IgG1, kappa, heterodimerized; also called He Ab E269_09D) heavy 1: not shown heavy 2: not shown light: DIVMTQSPLSLPVTPGEPASISCQASESLVHSNRNTYLHWYLQKPGQSPQLLIYKVSNRFSGVPDRFSGSGSGTDFTLKISRVEAEDVGVYYCSQNTHVPPTFGQGTKVEIERTVAAPSVFIFPPSDEQLKSGTASVVCLLNNFYPREAKVQWKVDNALQSGNSQESVTEQDSKDSTYSLSSTLTLSKADYEKHKVYACEVTHQGLSSPVTKSFNRGEC	107 % of control
GpH7-A5/GpH7-B3 variant E333_02A/GpL16-k0 (antibody, human IgG1, kappa, heterodimerized; also called He Ab E333_02A) heavy 1: not shown heavy 2: not shown light: DIVMTQSPLSLPVTPGEPASISCQASESLVHSNRNTYLHWYLQKPGQSPQLLIYKVSNRFSGVPDRFSGSGSGTDFTLKISRVEAEDVGVYYCSQNTHVPPTFGQGTKVEIERTVAAPSVFIFPPSDEQLKSGTASVVCLLNNFYPREAKVQWKVDNALQSGNSQESVTEQDSKDSTYSLSSTLTLSKADYEKHKVYACEVTHQGLSSPVTKSFNRGEC	103 % of control
GpH7-A5/GpH7-B3 variant E269_15Y/GpL16-k0 (antibody, human IgG1, kappa, heterodimerized; also called He Ab E269_15Y) heavy 1: not shown heavy 2: not shown light: DIVMTQSPLSLPVTPGEPASISCQASESLVHSNRNTYLHWYLQKPGQSPQLLIYKVSNRFSGVPDRFSGSGSGTDFTLKISRVEAEDVGVYYCSQNTHVPPTFGQGTKVEIERTVAAPSVFIFPPSDEQLKSGTASVVCLLNNFYPREAKVQWKVDNALQSGNSQESVTEQDSKDSTYSLSSTLTLSKADYEKHKVYACEVTHQGLSSPVTKSFNRGEC	106 % of control
GpH7-A5/GpH7-B3 variant A330_14T/GpL16-k0 (antibody, human IgG1, kappa, heterodimerized; also called He Ab A330_14T) heavy 1: not shown heavy 2: not shown light: DIVMTQSPLSLPVTPGEPASISCQASESLVHSNRNTYLHWYLQKPGQSPQLLIYKVSNRFSGVPDRFSGSGSGTDFTLKISRVEAEDVGVYYCSQNTHVPPTFGQGTKVEIERTVAAPSVFIFPPSDEQLKSGTASVVCLLNNFYPREAKVQWKVDNALQSGNSQESVTEQDSKDSTYSLSSTLTLSKADYEKHKVYACEVTHQGLSSPVTKSFNRGEC	105 % of control
GpH7-A5/GpH7-B3 variant E269_08L/GpL16-k0 (antibody, human IgG1, kappa, heterodimerized; also called He Ab E269_08L) heavy 1: not shown heavy 2: not shown light: DIVMTQSPLSLPVTPGEPASISCQASESLVHSNRNTYLHWYLQKPGQSPQLLIYKVSNRFSGVPDRFSGSGSGTDFTLKISRVEAEDVGVYYCSQNTHVPPTFGQGTKVEIERTVAAPSVFIFPPSDEQLKSGTASVVCLLNNFYPREAKVQWKVDNALQSGNSQESVTEQDSKDSTYSLSSTLTLSKADYEKHKVYACEVTHQGLSSPVTKSFNRGEC	104 % of control
GpH7-A5/GpH7-B3 variant E269_18N/GpL16-k0 (antibody, human IgG1, kappa, heterodimerized; also called He Ab E269_18N) heavy 1: not shown heavy 2: not shown light: DIVMTQSPLSLPVTPGEPASISCQASESLVHSNRNTYLHWYLQKPGQSPQLLIYKVSNRFSGVPDRFSGSGSGTDFTLKISRVEAEDVGVYYCSQNTHVPPTFGQGTKVEIERTVAAPSVFIFPPSDEQLKSGTASVVCLLNNFYPREAKVQWKVDNALQSGNSQESVTEQDSKDSTYSLSSTLTLSKADYEKHKVYACEVTHQGLSSPVTKSFNRGEC	102 % of control
GpH7-A5/GpH7-B3 variant E333_03V/GpL16-k0 (antibody, human IgG1, kappa, heterodimerized; also called He Ab E333_03V) heavy 1: not shown heavy 2: not shown light: DIVMTQSPLSLPVTPGEPASISCQASESLVHSNRNTYLHWYLQKPGQSPQLLIYKVSNRFSGVPDRFSGSGSGTDFTLKISRVEAEDVGVYYCSQNTHVPPTFGQGTKVEIERTVAAPSVFIFPPSDEQLKSGTASVVCLLNNFYPREAKVQWKVDNALQSGNSQESVTEQDSKDSTYSLSSTLTLSKADYEKHKVYACEVTHQGLSSPVTKSFNRGEC	105 % of control
GpH7-A5/GpH7-B3 variant E269_06M/GpL16-k0 (antibody, human IgG1, kappa, heterodimerized; also called He Ab E269_06M) heavy 1: not shown heavy 2: not shown light: DIVMTQSPLSLPVTPGEPASISCQASESLVHSNRNTYLHWYLQKPGQSPQLLIYKVSNRFSGVPDRFSGSGSGTDFTLKISRVEAEDVGVYYCSQNTHVPPTFGQGTKVEIERTVAAPSVFIFPPSDEQLKSGTASVVCLLNNFYPREAKVQWKVDNALQSGNSQESVTEQDSKDSTYSLSSTLTLSKADYEKHKVYACEVTHQGLSSPVTKSFNRGEC	104 % of control
GpH7-A5/GpH7-B3 variant E269_14T/GpL16-k0 (antibody, human IgG1, kappa, heterodimerized; also called He Ab E269_14T) heavy 1: not shown heavy 2: not shown light: DIVMTQSPLSLPVTPGEPASISCQASESLVHSNRNTYLHWYLQKPGQSPQLLIYKVSNRFSGVPDRFSGSGSGTDFTLKISRVEAEDVGVYYCSQNTHVPPTFGQGTKVEIERTVAAPSVFIFPPSDEQLKSGTASVVCLLNNFYPREAKVQWKVDNALQSGNSQESVTEQDSKDSTYSLSSTLTLSKADYEKHKVYACEVTHQGLSSPVTKSFNRGEC	106 % of control
GpH7-A5/GpH7-B3 variant E269_19Q/GpL16-k0 (antibody, human IgG1, kappa, heterodimerized; also called He Ab E269_19Q) heavy 1: not shown heavy 2: not shown light: DIVMTQSPLSLPVTPGEPASISCQASESLVHSNRNTYLHWYLQKPGQSPQLLIYKVSNRFSGVPDRFSGSGSGTDFTLKISRVEAEDVGVYYCSQNTHVPPTFGQGTKVEIERTVAAPSVFIFPPSDEQLKSGTASVVCLLNNFYPREAKVQWKVDNALQSGNSQESVTEQDSKDSTYSLSSTLTLSKADYEKHKVYACEVTHQGLSSPVTKSFNRGEC	105 % of control
GpH7-A5/GpH7-B3 variant E269_07I/GpL16-k0 (antibody, human IgG1, kappa, heterodimerized; also called He Ab E269_07I) heavy 1: not shown heavy 2: not shown light: DIVMTQSPLSLPVTPGEPASISCQASESLVHSNRNTYLHWYLQKPGQSPQLLIYKVSNRFSGVPDRFSGSGSGTDFTLKISRVEAEDVGVYYCSQNTHVPPTFGQGTKVEIERTVAAPSVFIFPPSDEQLKSGTASVVCLLNNFYPREAKVQWKVDNALQSGNSQESVTEQDSKDSTYSLSSTLTLSKADYEKHKVYACEVTHQGLSSPVTKSFNRGEC	103 % of control
GpH7-A5/GpH7-B3 variant E269_20W/GpL16-k0 (antibody, human IgG1, kappa, heterodimerized; also called He Ab E269_20W) heavy 1: not shown heavy 2: not shown light: DIVMTQSPLSLPVTPGEPASISCQASESLVHSNRNTYLHWYLQKPGQSPQLLIYKVSNRFSGVPDRFSGSGSGTDFTLKISRVEAEDVGVYYCSQNTHVPPTFGQGTKVEIERTVAAPSVFIFPPSDEQLKSGTASVVCLLNNFYPREAKVQWKVDNALQSGNSQESVTEQDSKDSTYSLSSTLTLSKADYEKHKVYACEVTHQGLSSPVTKSFNRGEC	105 % of control
